The text below walks through data of publication PMC4028264.

Bounds are passed on as bounds.

Holding throughout (assay): native gel or EMSA
(In general: Mobility shift assays separate free from complexed probe on a gel.)

Test [1] has as its target HIV-1 strain R2 gp140 fused to a modified GCN4 trimerization domain (HIV-1 strain R2 | not stated).
In test [2] the target is HIV-1 strain R2 gp140 with a 15 amino acid flexible linker between gp120 and the gp41 ectodomain, fu (HIV-1 strain R2 | not stated).
Test [3] concerns the target HIV-1 strain R2 soluble gp140 envelope glycoprotein (uncleaved) (HIV-1 strain R2).

For orientation: stoichiometry N means the number of molecules, sites or subunits per partner or assembly.

“HIV-1 strain R2 gp140 fused to a modified GCN4 trimerization domain (domain or fragment)” yielded a stoichiometry N in test [1] of 3.
The substance “HIV-1 strain R2 gp140 with a 15 amino acid flexible linker between gp120 and the gp41 ectodomain, fu (domain or fragment)” gave a stoichiometry N in test [2] of 3.
For “HIV-1 strain R2 soluble gp140 envelope glycoprotein (uncleaved) (domain or fragment)”, in test [3], the percent dimer was above 90% and the stoichiometry N was 2.
